Assay: soluble on expression in E. coli; label from the status in PepcDB or PDB records

## SEEYHRHCDEVGFNAEEAHNIVKECVDGVLGGEDYNHNNINQWTASIVEQSLTHLVKLGKAYKYIVTCAVVQKSAYGFHTASSCFWDTTSDGTCTVRWENRTMNCIVNVFAIAIVL
  soluble on expression in E. coli: soluble

## MGSDKIHHHHHHMSEQYKQPNTPEPYWRQSTPLPDFKPLQNDLLVDVVIVGGGITGITTAYLLQKRGKKVVILEADRLFNGTTGHTTAKITAQHGLIYDEFIQHFGEDKAKQYYDAQMEAKTFIKNTVQDLSIDCDFQEHDAYIYTNANRYLAKLEREMRAYEKLQINGSLIDSMPLQVPIKKAIVMKGQAQFHPIAYLMKLVQDFIDRGGLIFEHTVATDVDKGEHRTVLTRDGHKVTCDYVVESSHFPFFDRGFYFSRMYADRSYVLGLKVKEPYPGGMYLSAEDPPRSIRHASYQGEDLWLISGETHKTGQGMDTDYHYEALESFSREMFNVTDISYRWSAQDLVTLDRMPYIGPATSNDPHILVATGFRKWGMTNGTIAAHVITDLIIGQVNAYQKLFAPQRFVADPSLRKFFSYNVDVAKHLIDGKTEKGSRTPESLQKDEGDVVNVNGKRAGGYRDTDGALHLVDTTCTHMGCEVSWNHGDRTWDCPCHGSRFSYDGEVVEGPAKKPLKKIDHT
  soluble on expression in E. coli: not soluble

## VGAPLAVELDRSSPVPLYFQLAQTIENAIIGGELAPGDRFENELALAKRLNLSRPTTRRAIQELVDKGLLVRKRGVGTQVVQSAVHRPVELTSLFDDLARAGQSPTTKLLDYQVSVPAEDVAAELNLQPGAEVASIRRLRSTNGEPLALMTNHIPVDLAPDPEELEAHGLYHALRARGVHIRLARQRIGAKAASKAEASLLDEKTGAPLLTMNRTAFDDSGSAVEFGSHCYRASRYYFDTTVVDR
  soluble on expression in E. coli: not soluble

## MNGTGNTILVTGGTSGIGLGLALRLHKAGNKVIIAGRRKALLDKIVSEHPGIESVVLDVTDPHSIQHSSEALAISHPNLNVLINNAGIMHWEDLTDAKYLSTAENIVTTNLLGTIRMVYAFTPNLLKQPSATIVNVSSALAFVPLPATPTYSATKAAVHSFTQSLRVQLADSPVEVIELAPPGVRTTLLGQENDEHAMPLEAFLDEIFKLLDISPTPQELVVERAKPLRFAEANGSHGEVLKMLAGYKPPAE
  soluble on expression in E. coli: not soluble

## RNEHTGELRLGASTTIAQYVLPPLLARFIEKFPQVSLSLFSGNSSEVEKALQEHRIDLALVEGNTRQPNLKYTPFLQDELVAIVHTHSKWMDYDEITLDELKEVPLVLRERGSGTLDVLITALHKHNIKLSDLTIRMHLGSTESIK
  soluble on expression in E. coli: not soluble

## MSLNLVSEQLLAANGLKHQDLFAILGQLAERRLDYGDLYFQSSYHESWVLEDRIIKDGSYNIDQGVGVRAISGEKTGFAYADQISLLALEQSAQAARTIVRDSGDGKVQTLGAVEHSPLYTSVDPLQSMSREEKLDILRRVDKVAREADKRVQEVTASLSGVYELILVAATDGTLAADVRPLVRLSVSVLVEEDGKRERGASGGGGRFGYEFFLADLDGEVRADAWAKEAVRMALVNLSAVAAPAGTMPVVLGAGWPGVLLHEAVGHGLEGDFNRRGTSVFSGQVGELVASELCTVVDDGTMVDRRGSVAIDDEGTPGQYNVLIENGILKGYMQDKLNARLMGMTPTGNGRRESYAHLPMPRMTNTYMLPGKSTPQEIIESVEYGIYAPNFGGGQVDITSGKFVFSTSEAYLIENGKVTKPVKGATLIGSGIETMQQISMVGNDLKLDNGVGVCGKEGQSLPVGVGQPTLKVDNLTVGGTA
  soluble on expression in E. coli: soluble

## MKLKNTLLASALLSAAAFSVHAATELTPEQAAALKPYDRIVITGRFNAIGDAVSAVSRRADKEGAASFYVVDTSEFGNSGNWRVVADVYKADAPKADAPKNRVINGIVELPKDQAVQLEPYDTVTVQGFYRSQPEVNDAITKAAKQKGAYAFYIVRQIDANQGGNQRITAFIYKQDAKKRIVQSPDAIPADSEAGRAALAQGGEAAKKVEIPGVATSASPSAEVGRFFETQSSKGGRYTVTLPDGTKVEELNKATAAMMVPFDSVKFTGNYGNMTEISYQVAKRAAKKGAKYYHITRQWQERGNNITISADLYKLEHHHHHH
  soluble on expression in E. coli: soluble

## EAGMAAITAATAGNMQSQINYTRSNEKEADRFGIATLAKAGFDVQAMPRFFGRLADEYRYASKPPPMLLTHPLPEDRVADSRQRAQAYPPMRIAPSIDYHLARARIVARYAGIDGQAALGWFERTQKKASADIMPSFDYGRALVHLDNKRLSQAEPILKKLLAQDPGNPFYLDAMTDLYIEKKQPQKAVELLNSALKRNPQNKVLTINYANALLEANQNDQAVRTLQRYTHDNPEDSNGWQLLSKGYHALGRSDEELAARAEILALRANWNKAIQYYSEASKMAELGSLEQARYDARIDQLMIQRDRFMALQ
  soluble on expression in E. coli: not soluble

## MGHHHHHHSHMAIQVDKFNFESFPESPGEKGQFANPKQLEEERREARGLEIHSKLGICWRIPSLKRSGEASVEGLLNQLVLEHLQLAPLQWDVLVDGQPCDREAVAACQVGDPVRLEVRLTNRSPRSVGPFALTVVPFQDHQNGVHNYDLHDTVSFVGSSTFYLDAVQPSGQSACLGALLFLYTGDFFLHIRFHEDSTSKELPPSWFCLPSVHVCALEAQA
  soluble on expression in E. coli: not soluble

## VKLTDVDFAVEASGMVRAFNQAGVLDVSDVHVAQRLCALAGESDERVALAVAVAVRALRAGSVCVDLLSIARVAGHDDLPWPDPADWLAAVRASPLLADPPVLHLYDDRLLYLDRYWREEEQVCADLLALLTSRRPAGVPDLRRLFPTGFDEQRRAAEIALSQGVTVLTGGPGTGKTTTVARLLALVAEQAELAGEPRPRIALAAPTGKAAARLAEAVRREMAKLDATDRARLGDLHAVTLHRLLGAKPGARFRQDRQNRLPHNVIVVDETSMVSLTLMARLAEAVRPGARLILVGDADQLASVEAGAVLADLVDGFSVRDDALVAQLRTSHRFGKVIGTLAEAIRAGDGDAVLGLLRSGEERIEFVDDEDPAPRLRAVLVPHALRLREAALLGASDVALATLDEHRLLCAHRDGPTGVLHWNRRVQAWLAEETGQPPWTPWYAGRPLLVTANDYGLRVYNGDTGVVLAGPTGLRAVISGASGPLDVATGRLGDVETMHAMTIHKSQGSQVDEVTVLMPQEDSRLLTRELLYTAVTRAKRKVRVVGSEASVRAAIARRAVRASGLRMRLQSTGCG
  soluble on expression in E. coli: soluble

## MNLQIKHAIFVLGIFLQVQGIKDTSIKIFSSEIKNIDKTPRIETIESTSTVHKVSTMKRIFDLPKLRTKRSALFPAANICPQESLRQILASLQEYYRLRVCQEVVWEAYRIFLDRIPDTEEYQDWVSLCQKETFCLFDIGKNFSNSQEHLDLLQQRIKQRSFPGRKDETASMETLEAPTEAPVVPTDVSRMSLGPFPLPSDDTDLKEILSVTLKDIQKPTTESKTEPIHVSEFSSEEKVEFSISLPNHRFKAELTNSGSPYYQELVGQSQLQLQKIFKKLPGFGEIRVLGFRPKKEEDGSSSTEIQLMAIFKRDHAEAKSPDSHLLSLDSNKIESERIHHGVIEDKQPETYLTATDLKKLIIQLLDGDLSLVEGKIPFGDEVTGTLFRPVTEPDLPKPLADVTEDATLSPELPFVEPRLEAVDREGSELPGMSSKDSSWSPPVSASISRSENLPSFTPSIFSLDAQSPPPLMTTGPTALIPKPTLPTIDYSTIRQLPLESSHWPASSSDRELITSSHDTIRDLDGMDVSDTPALSEISELSGYDSASGQFLEMTTPIPTVRFITTSSETIATKGQELVVFFSLRVANMPFSYDLFNKSSLEYQALEQRFTDLLVPYLRSNLTGFKQLEILSFRNGSVIVNSKVRFAKAVPYNLTQAVRGVLEDLRSTAAQGLNLEIESYSLDIEPADQADPCKLLDCGKFAQCVKNEWTEEAECRCRQGHESHGTLDYQTLNLCPPGKTCVAGREQATPCRPPDHSTNQAQEPGVKKLRQQNKVVKKRNSKLSAIGFEEFEDQDWEGN
  soluble on expression in E. coli: soluble

## MKNTTLYTYRDYFVIRGGKPLTGKVKISGAKNAALPIMFATILTEEPCTITNVPDLLDVRNTLLLLRELGAELEFLNNTVFINPSINSFITNQEIIRRMRASVLSLGPLLGRFGRAVVGLPGGCSIGARPIDQHLKFFKEAGADVEVREGYVYVNLKEKRRVHFKFDLVTVTGTENALLYLASVPEESILENIALEPEVMDLIEVLKKMGAHVKVEGRSAYVKGSENLKGFTHSVIPDRIEAGTFMVGAVLTDGEILLENARINHLRAVVEKLKLIGGEVVEENGNLRVFRKESLRACDIETQVYPGFPTDMQAQFMALLSVAKGKSRIKENIFEHRFHHAQELNRLGANITVRGNTAYVEGVERLYGSEVYSTDLRASASLVLAGLVAQGETVVRDVYHLDRGYEKLEEKLKKLGADIERVSEL
  soluble on expression in E. coli: soluble

## MSLAPLDLDKYVEIARLCKYLPENDLKRLCDYVCDLLLEESNVQPVSTPVTVCGDIHGQFYDLCELFRTGGQVPDTNYIFMGDFVDRGYYSLETFTYLLALKAKWPDRITLLRGNHESRQITQVYGFYDECQTKYGNANAWRYCTKVFDMLTVAALIDEQILCVHGGLSPDIKTLDQIRTIERNQEIPHKGAFCDLVWSDPEDVDTWAISPRGAGWLFGAKVTNEFVHINNLKLICRAHQLVHEGYKFMFDEKLVTVWSAPNYCYRCGNIASIMVFKDVNTREPKLFRAVPDSERVIPPRTTTPYFLEGHHHHHH
  soluble on expression in E. coli: not soluble

## RPAEEIIQGQIEVTEYRVSSKVPGRIKELRVSEGQQVQAGDTLAVIEAPDVAAKMEQAKAAEAAAQAQNAKALKGARSEQIQAAYEMWQKAQAGVAIATKTHQRVQNLYDQGVVPAQKLDEATAQRDAAIATQKAAEAQYNMARNGAEREDKLAASALVDRARGAVAEVESYINETYLIAPRAGEVSEIFPKAGELVGTGAPIMNIAEMGDMWASFAVRED
  soluble on expression in E. coli: not soluble

## MAHHHHHHMDEYDYNYATYDIDNFTNNFEDNLINYNQIDFINDNAEINNYSNEYYAYDEDLVEENVSEKRIHNKVLLSNDNEFDNNLINISNEIKTENSNNDTSLLKKRKIINDILLNIKKKMKKNDTLCIICLQNEKKYTFTCCYEYYCSLECFKKHDQQKCRNQNKNEPKISGSHNINMDDIKNSNHQKYEDTYYYQNEEDINKKQNDKVIENTIKLDNENKKNEINNINDMDTTCSNFPNNNLSTSLLNNDNNIPNNNENSESSDDYTDDYDMLTEEQKKKLKEDHTLKILLKNNYVREVFKQFTLSNDKIGYLSHYINDPTIVQVIDHIMKTIDDT
  soluble on expression in E. coli: not soluble

## MSHDFAHTELEELLTRTREAIEASFGNRSPQVEVRGEGTDPDGHVRAVAVSGGRIETVEIAPQAVRLGSHRLAECALAAVNAALADLEAKAAEAAGLTGPQADALRERLREMQDLSLQQLRSYSRSLQDLMNSFERS
  soluble on expression in E. coli: not soluble

## YKIEKEQRLGLIPQREGNYEKNKNVLESATVKINYYSSKATSGQAGAAASAAFAKNNNTSDNTQQNQTSSVEAKSVNVTKHSFVQALKKVGFSGSNPLHFNMKLGNSSLSANGVDYYNAVKQALTELG
  soluble on expression in E. coli: not soluble

## MGSDKIHHHHHHMIDPAGRTTAWEYDAYGSLLVQTLPDGSAVRTEFDLDHRPVCMTLIGGRQWGYEWNTFGNLLAQSDPSGAISRYTYDEYGQLVEHTGPRGASTRFDYHPDGNLAAQIDALGHRTQYRYDARGYLGEAIDALGQQSQYEYDRNGHLTRAIEPGGREIHCAYDADGNLSRHRDPMGHVTQMEYSALGQVSRRLAPDGTTVEYRYDTEEQLIGVVNERSELYALERDALGRIVVETDYWGQARRYRYGAAGELLCSTDPLGQTVEYRYDWLGRIVQKRVPHPEQDEALQIDSFAYDRHGDLVLAENPSCRVEFDYDAAGRMIEERQGDDFTIASDYDEAVTCPLR
  soluble on expression in E. coli: not soluble
